Experimental data as given in article PMC9160799, “PET Imaging of Acidic Tumor Environment With ^89Zr-labeled pHLIP Probes” (Frontiers in Oncology, 2022).

Experiments:
[1] = Post-mortem biodistribution, RM-1 tumor model; type: in vivo, male athymic nude mice; conditions: male, athymic nude, mouse, in vivo, iv, 1.2 nmol, total radioactivity
Method: (§1) The media were provided by the MSK Media Preparation Core. […] Another aliquot was diluted with the medium so that 50 µL contained 1×10^6 cells.
(§2) The imaging and biodistribution studies were performed with male (RM-1 model) and female (4T1 model) athymic nude mice and the kidney-blocking experiments were performed with female SCID mice received from Charles River Laboratories (Stone Ridge, NY). After arrival, the mice were kept in the MSK vivarium for one week before any experimental handling was performed. The animals were allowed free access to water and food, and all animal care and experimental procedures were approved by the Institutional Animal Care and Use Committee (IACUC). For the subcutaneous allografts, a 1-to-1 ratio of Corning Matrigel Matrix and the cell solution was prepared and stored on ice for the injections. Each mouse received a subcutaneous injection of 100 µL (50 µL cell solution, viability > 90%, + 50 µL Matrigel) into the flank on the level of the right shoulder. The injections were performed under anesthesia (2% isoflurane, Baxter Healthcare, Deerfield, IL, USA).
(§3) The mice were intravenously injected (tail vein) with the radiolabeled pHLIP conjugates (1.2 nmol, 7.4 MBq/200 µCi, 100 µL, in sterile filtered PBS). The activity of the syringe prior to injection and after injection was used to determine the percent of injectate administered.
(§4) For the biodistribution studies the tumor-bearing mice were randomized before the injections. Only mice with suitable tumors (150–300 mm^3) were utilized. An exception was made for the 120-hour timepoint, for which only mice with smaller tumors (150 mm^3) were selected. The mice were grouped in cohorts of four. At the respective timepoint, the mice were euthanized (by CO2 asphyxiation, followed by cervical dislocation) and their blood was collected by cardiac puncture as a terminal procedure, followed by quick removal of the tumors. After this, the other organs/samples were collected. […] The exact activities of all samples of one mouse were determined by an Capintec® CRC-55tR dose calibrator. These decay-corrected measurements were used to determine a calibration factor and calibrate all counts to the corresponding activities. Activity concentrations were calculated as percentage injected dose per tissue weight (%ID/g wet tissue). All data was processed and visualized using Origin 8.5.

[2] = type: in vitro ADME, human
Method: A potential degradation of the compounds was investigated by serum stability assay. For this, 100 µL of the prepared PBS solution (containing 1.2 nmol of pHLIP and 7.4 MBq/200 µCi) was added to 900 µL of human serum (heat inactivated from Millipore Sigma) and incubated for seven days at 37°C. The release of free ^89Zr^4+ was measured by radio instant thin-layer chromatography (as described above) and the degradation of the whole construct was checked by radio high-performance liquid chromatography (HPLC). The analytical reverse-phase HPLC was performed on a Shimadzu system equipped with a Flow Count PIN diode radiodetector from BioScan, a DGU-20A degasser, two LC-20AB pumps, and an SPD-M20A photodiode array detector. A BetaBasic 18 column (150 Å, 5.0 µm, 4.6×150 mm, Thermo Scientific) was used with water (+ 0.1% trifluoroacetic acid) and acetonitrile (+ 0.1% trifluoroacetic acid) as solvents. The gradient started at 5% acetonitrile and increased to 95% over 15 minutes at a constant flowrate of 1 mL/min. The radiochemical purities of all ^89Zr-radiolabeled pHLIP conjugates were greater than 90% over the course of seven days.

4T1 tumor allografts [3] = tested on: 4T1 tumor allografts; parameters: species or system female athymic nude mice; conditions: mouse, in vivo, iv
in vivo = assay: in vivo; parameters: species or system female athymic nude mice; conditions: female, athymic nude, mouse, iv, 1.2 nmol, total radioactivity
Method: as §1, §2, §3, §4

4T1 tumor allografts [4] = assay: in vivo; parameters: species or system female athymic nude mice; conditions: mouse, iv
Method: as §1, §2, §3, §4

CC(=O)N(O)CCCCCNC(=O)CCC(=O)N(O)CCCCCNC(=O)CCC(=O)N(O)CCCCCNC(=O)CCN1C(=O)CC(SC[C@@H](NC(=O)[C@@H](C)N)C(=O)N[C@H](CC(=O)O)C(=O)N[C@H](CC(=O)O)C(=O)N[C@H](CCC(N)=O)C(=O)N[C@H](CC(N)=O)C(=O)N2CCC[C@@H]2C(=O)N[C@H](Cc2c[nH]c3ccccc23)C(=O)N[C@H](CCCNC(=N)N)C(=O)N[C@H](C)C(=O)N[C@H](Cc2ccc(O)cc2)C(=O)N[C@H](CC(C)C)C(=O)N[C@H](CC(=O)O)C(=O)N[C@H](CC(C)C)C(=O)N[C@H](CC(C)C)C(=O)N[C@H](Cc2ccccc2)C(=O)N2CCC[C@@H]2C(=O)N[C@@H](C(=O)N[C@H](CC(=O)O)C(=O)N[C@@H](C(=O)N[C@H](CC(C)C)C(=O)N[C@H](CC(C)C)C(=O)N[C@H](CC(C)C)C(=O)N[C@H](CC(=O)O)C(=O)N[C@H](CC(C)C)C(=O)N[C@H](CC(C)C)C(=O)N[C@H](Cc2c[nH]c3ccccc23)C(=O)O)[C@H](C)O)[C@H](C)O)C1=O (stereo partly drawn) (89Zr complex, metal not drawn) [DFO-Cys-Var3]
tissue uptake at 48 h ([1]; RM-1, male athymic nude mice, 48 h p.i., i.v. 1.2 nmol, 7.4 MBq, gamma counting, mean ± S.D., n=4, read-out: Brain uptake): 0.08 ± 0.01 %ID/g
tissue uptake at 48 h ([1]; RM-1, male athymic nude mice, 48 h p.i., i.v. 1.2 nmol, 7.4 MBq, gamma counting, mean ± S.D., n=4, read-out: Pancreas uptake): 0.7 ± 0.1 %ID/g
tissue uptake at 48 h ([1]; Tibia uptake): 1.4 ± 0.1 %ID/g
radiochemical purity after incubation in human serum [2]: > 90%
biological half-life for total body excretion (4T1 tumor allografts [3]): 415 ± 10 hours
tissue uptake at 4 h (in vivo; Blood uptake): 16.1 ± 0.6 %ID/g
tissue uptake at 24 h (in vivo; Blood uptake): 5.8 ± 0.5 %ID/g
tissue uptake at 48 h (in vivo; Blood uptake): 2.2 ± 0.1 %ID/g
tissue uptake at 72 h (in vivo; Blood uptake): 1 ± 0.1 %ID/g
tissue uptake at 120 h (in vivo; Blood uptake): 0.2 ± 0.05 %ID/g
tissue uptake at 4 h (in vivo; Heart uptake): 4.2 ± 0.5 %ID/g
tissue uptake at 24 h (in vivo; Heart uptake): 3 ± 0.4 %ID/g
tissue uptake at 48 h (in vivo; Heart uptake): 2.6 ± 0.1 %ID/g
tissue uptake at 72 h (in vivo; Heart uptake): 1.9 ± 0.2 %ID/g
tissue uptake at 120 h (in vivo; Heart uptake): 1.6 ± 0.3 %ID/g
tissue uptake at 4 h (in vivo; Kidneys uptake): 19.8 ± 3.3 %ID/g
tissue uptake at 24 h (in vivo; Kidneys uptake): 44.3 ± 6.5 %ID/g
tissue uptake at 48 h (in vivo; Kidneys uptake): 47.6 ± 11.5 %ID/g
tissue uptake at 72 h (in vivo; Kidneys uptake): 46.3 ± 8.3 %ID/g
tissue uptake at 120 h (in vivo; Kidneys uptake): 35.3 ± 5.9 %ID/g
tissue uptake at 4 h (in vivo; Liver uptake): 4.8 ± 0.4 %ID/g
tissue uptake at 24 h (in vivo; Liver uptake): 6.1 ± 0.7 %ID/g
tissue uptake at 48 h (in vivo; Liver uptake): 6.6 ± 0.1 %ID/g
tissue uptake at 72 h (in vivo; Liver uptake): 6.7 ± 0.7 %ID/g
tissue uptake at 120 h (in vivo; Liver uptake): 6 ± 0.3 %ID/g
tissue uptake at 4 h (in vivo; Lungs uptake): 11.2 ± 2 %ID/g
tissue uptake at 24 h (in vivo; Lungs uptake): 3.8 ± 0.9 %ID/g
tissue uptake at 48 h (in vivo; Lungs uptake): 2.7 ± 0.3 %ID/g
tissue uptake at 72 h (in vivo; Lungs uptake): 2 ± 0.1 %ID/g
tissue uptake at 120 h (in vivo; Lungs uptake): 1.8 ± 0.3 %ID/g
tissue uptake at 24 h (in vivo; Pancreas uptake): 1.8 ± 0.2 %ID/g
tissue uptake at 48 h (in vivo; Pancreas uptake): 1.5 ± 0.4 %ID/g
tissue uptake at 72 h (in vivo; Pancreas uptake): 1.5 ± 0.2 %ID/g
tissue uptake at 120 h (in vivo; Pancreas uptake): 1.4 ± 0.1 %ID/g
tissue uptake at 4 h (in vivo; Skin uptake): 2.7 ± 0.6 %ID/g
tissue uptake at 24 h (in vivo; Skin uptake): 3.7 ± 0.4 %ID/g
tissue uptake at 48 h (in vivo; Skin uptake): 3.9 ± 0.7 %ID/g
tissue uptake at 72 h (in vivo; Skin uptake): 3.5 ± 0.6 %ID/g
tissue uptake at 120 h (in vivo; Skin uptake): 3.7 ± 0.1 %ID/g
tissue uptake at 4 h (in vivo; Spleen uptake): 2.7 ± 0.5 %ID/g
tissue uptake at 24 h (in vivo; Spleen uptake): 4.1 ± 0.7 %ID/g
tissue uptake at 48 h (in vivo; Spleen uptake): 5.1 ± 2 %ID/g
tissue uptake at 72 h (in vivo; Spleen uptake): 4.3 ± 0.4 %ID/g
tissue uptake at 120 h (in vivo; Spleen uptake): 6.1 ± 1 %ID/g
tissue uptake at 4 h (in vivo; Tibia uptake): 1.8 ± 0.2 %ID/g
tissue uptake at 24 h (in vivo; Tibia uptake): 1.8 ± 0.06 %ID/g
tissue uptake at 48 h (in vivo; Tibia uptake): 1.5 ± 0.4 %ID/g
tissue uptake at 72 h (in vivo; Tibia uptake): 1.6 ± 0.2 %ID/g
tissue uptake at 4 h (in vivo; Tumor uptake): 5.6 ± 0.8 %ID/g
tissue uptake at 24 h (in vivo; Tumor uptake): 9.4 ± 1.2 %ID/g
tissue uptake at 48 h (in vivo; Tumor uptake): 9.7 ± 1.7 %ID/g
tissue uptake at 72 h (in vivo; Tumor uptake): 9.1 ± 1 %ID/g
tissue uptake at 120 h (in vivo; Tumor uptake): 6.8 ± 0.7 %ID/g
(biological) blood clearance half-life (4T1 tumor allografts [4]): 16.0 ± 0.4 hours
